Reference: patent US20070185028A1, “Compositions and methods for treatment of protein misfolding and protein aggregation diseases” (priority 2004, published 2007)

Tests used:
[1] = target: T1, equine alcohol dehydrogenase (ADH) (Equus caballus, UniProt P00327); assay: αB crystallin protein pin array with alcohol dehydrogenase; format: binding; settings: ADH as ligand in the pin array
T1 construct: purchased Sigma-Aldrich, MO 05646
Description: (§1) Synthesis of Pins, binding and detection of peptides binding to ligand proteins. The αB crystallin protein pin array was used to measure the interaction between peptides and chaperone target proteins including bovine βH crystallin, human γD crystallin, equine alcohol dehydrogenase (ADH) and porcine citrate synthase (CS) as described (FIG. 12). Ghosh and Clark, Protein Sci 14: 684-95, 2005.
(§2) Refer to the methods section for detailed protocols. The absorbance corresponding to the blue coloration in each well was measured at λ=450 nm and plotted against the amino acid sequence of the corresponding peptide in that well (FIGS. 13 and 14). Wells containing peptides that have strong interactions with target proteins are dark blue and wells containing peptides that have weak or no interaction with target proteins are light blue or clear.
(§3) The purity of the target proteins used in the pin array assays, bovine βH crystallin, human γD crystallin, equine alcohol dehydrogenase (ADH) and porcine citrate synthase (CS) were determined to be >90% by SDS-PAGE. In addition, primary antibodies for each target protein were specific to that target protein and consequently contaminating proteins that may bind to the peptides will not be detected. Eighty-four sequential and overlapping peptide fragments corresponding to residues 1-175 of human αB crystallin were synthesized employing a simultaneous peptide synthesis strategy developed by Geysen, called Multipin Peptide Synthesis (Mimotopes, San Diego, Calif.). Geysen, Southeast Asian J Trop Med Public Health 21: 523-33, 1990; Chin et al., J Org Chem 62: 538-539, 1997. Peptides were immobilized on derivatized polyethylene pins arranged in a microtiter ELISA plate format. Each peptide was eight amino acids in length and consecutive peptides were offset by two amino acids. All peptides were bound covalently to the surface of the plastic pins. The first peptide was 1MDIAIHHP8 and the last peptide was 168PAVTAAPK175 for human αB crystallin.
(§4) Ghosh and Clark, Protein Sci 14: 684-95, 2005. […] The intensity of the blue color in the wells was measured at 450 nm using an ELISA plate-reader (BioTek, Winooski, Vt.). The intensity of the blue color (plotted on the X-axis) was a measure of the interaction between αB crystallin peptides (plotted on the Y-axis) and target proteins. To measure the effect of temperature on the interactions between interactive peptides and the target proteins, the target proteins were heated in a water-bath at 45° C. for fifteen minutes prior to use. Pin arrays are unable to differentiate between monomers, dimers or oligomers of target proteins that exist in solution. Instead, pin arrays are very sensitive detectors of interactions between individual peptides and the entire population (monomers, dimers or oligomers) of specific target proteins that may exist in solution under specific conditions. Each target protein was assayed two to five times. A single pin array was used for all experiments and no change in interactions was observed after more than thirty repetitions. The last three peptides of the protein pin array, 163REEKPAVT170, 165EKPAVTAA172, 167PAVTAAPK174, correspond to the epitope (163REEKPAVTAAPKK175) recognized by the primary antibody for human αB crystallin. A positive reaction is observed for these three peptides in the absence of human αB crystallin as the ligand due to direct binding of the anti-human αB crystallin antibody to these three peptides. The loss of efficiency for the pin array was measured using this assay. The loss of efficiency for the pin array was determined to be <5% by after more than 30 assays.
The pattern of absorbance at k=450 nm when αB crystallin peptides were assayed with unheated and pre-heated ADH was similar to the absorbance pattern obtained with unheated and pre-heated βH/γD crystallin (FIG. 17). […]

[2] = as provided by manufacturer (Mimotopes); cited from earlier work
bovine βH crystallin = assay: αB crystallin protein pin array with βH crystallin; format: binding; settings: unheated βH crystallin, 23° C.; similar maxima pre-heated 45° C.
Description: as §1, §2, §3, §4
Protein pin arrays enabled the identification of interactive sequences necessary for the chaperone activity of human αB crystallin. Interactions between immobilized 8-mer human αB crystallin peptides and unheated and pre-heated βH crystallin, a natural protein constitute of lens cells, were measured as absorbances at λ=450 nm at 23° C. […]

[3] = target: T2, porcine citrate synthase (CS) (Sus scrofa, UniProt P00889); assay: αB crystallin protein pin array with citrate synthase; format: binding; settings: CS as target protein in the pin array
T2 construct: purchased Roche Diagnostics, IN 103 381
T2 sequence (P00889 28-464): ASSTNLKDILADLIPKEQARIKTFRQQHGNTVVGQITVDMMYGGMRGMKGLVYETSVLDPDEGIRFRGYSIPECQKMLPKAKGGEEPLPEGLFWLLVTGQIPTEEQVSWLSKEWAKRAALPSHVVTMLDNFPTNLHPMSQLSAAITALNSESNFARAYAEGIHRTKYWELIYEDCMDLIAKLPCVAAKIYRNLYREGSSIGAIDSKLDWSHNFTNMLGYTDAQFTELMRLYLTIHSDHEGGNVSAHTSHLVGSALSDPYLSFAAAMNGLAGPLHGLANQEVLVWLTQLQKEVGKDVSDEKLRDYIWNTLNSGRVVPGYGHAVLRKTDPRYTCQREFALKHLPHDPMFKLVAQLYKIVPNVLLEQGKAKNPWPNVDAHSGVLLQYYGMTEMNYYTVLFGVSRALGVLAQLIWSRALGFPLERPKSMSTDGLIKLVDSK
Description: as §1, §2, §3, §4
The pattern of absorbance at λ=450 nm when αB crystallin peptides were assayed with unheated and pre-heated CS was similar to the absorbance pattern obtained with unheated and pre-heated βH/γD crystallin and ADH (FIG. 18). […]

beta amyloid = beta amyloid (Homo sapiens, UniProt P05067); assay: αB crystallin protein pin array, binding of beta amyloid; settings: immobilized 8-mer peptide; absorption at 450 nm
Description: αB Crystallin peptides that bind the target protein beta-amyloid were identified by screening an αB crystallin protein pin array, which provides a systematic method for evaluating interactions between peptides corresponding to residues 1-175 of human αB crystallin and selected target proteins in a parallel and simultaneous manner.
Peptides were synthesized on derivatized polyethylene pins arranged in a microtiter plate format. Each peptide was 8 amino acids in length and consecutive peptides were offset by 2 amino acids. All peptides were covalently bonded to the surface plastic pins. The first immobilized peptide was 1MDIAIHHP8 and the last peptide was 168PAVTAAPK175 for the human αB crystallin.
After synthesis, the pins were pre-coated at room temperature with 2% Bovine Serum Albumin (BSA), 0.1% Tween-20 and 0.1% Sodium azide in 10 mM phosphate buffered saline pH 7.2 (PBS) for 1 hr, and washed three times for 10 mins each with 10 mM PBS. To screen for binding to the peptides, fixed concentrations of the target protein beta amyloid was dissolved in 10 mM PBS, containing 0.05% Tween-20, added to each well and incubated for 1 hr at room temperature. The pin array was washed three times for 10 mins each with 10 mM PBS, containing 0.05% Tween-20. Monoclonal or polyclonal primary antibodies for the target protein beta amyloid was diluted into PBS buffer, added to each well and incubated for 1 hr at room temperature. Subsequently, the pin array was washed three times for 10 mins each with 10 mM PBS containing 0.05% Tween-20. Anti-rabbit horse-radish peroxidase conjugate secondary antibodies was diluted into PBS buffer, added to each well and incubated for 1 hr at room temperature. The pin array was washed three times for 10 mins each with 10 mM PBS containing 0.05% Tween-20. A chromogenic substrate of horse-radish peroxidase 3,3′,5,5′-Tetramethylbenzidine (TMB) (Pharmingen, San Diego, Calif.) which is colorless was added, and the reaction was carried out for 45 min.
The reaction was stopped by adding 6N sulfuric acid, which changes the color from blue to yellow. The absorption at 450 nm was measured by an ELISA reader (BioTek, Winooski, Vt.).
The pin array was regenerated by sonication in a water bath (VWR Aquasonic, West Chester, Pa.) with 100 mM PBS, containing 1% Sodium dodecyl sulfate (SDS) and 0.1% 2-Mercaptoethanol@60° C. for 10 mins. Next, the pin array was rinsed three times in deionized water, preheated to 60° C. for 30 secs each time, and shaken in water preheated at 60° C. for 30 min. The pin array was then washed with methanol at 60° C. for 15 secs and air-dried and stored @−20° C. for future use. Each target protein was assayed 2-5 times against the human αB crystallin protein pin array peptides to verify the reproducibility of the results. Peptides numbered 5, 7, 8, 9, 13, 19, 22, 23, 24, 27, 35, 38, 45, 51, 52, 56, 57, 61, 66, 71, 72, and 79 in Table 2 reproducibly tested positive in the protein pin assay.

human γD crystallin = target: T3, human γD crystallin (Homo sapiens, UniProt P07320); assay: αB crystallin protein pin array with γD crystallin; format: binding; settings: unheated γD crystallin; similar maxima pre-heated 45° C.
T3 construct: made in house
T3 sequence (P07320 1-174): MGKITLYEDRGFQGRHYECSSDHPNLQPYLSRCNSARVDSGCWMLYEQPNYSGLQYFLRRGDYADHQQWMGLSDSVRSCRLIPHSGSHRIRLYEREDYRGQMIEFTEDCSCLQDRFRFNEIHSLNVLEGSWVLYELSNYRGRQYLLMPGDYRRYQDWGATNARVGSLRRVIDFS
Description: as §1, §2, §3, §4
When βH crystallin was replaced with γD crystallin, a native protein constituent of lens cytoplasm from the same gene family as the β crystallins, as the ligand in the pin array, twelve interactive sequences were identified (FIG. 14: striped bars). […]

T1 sequence (P00327 whole entry): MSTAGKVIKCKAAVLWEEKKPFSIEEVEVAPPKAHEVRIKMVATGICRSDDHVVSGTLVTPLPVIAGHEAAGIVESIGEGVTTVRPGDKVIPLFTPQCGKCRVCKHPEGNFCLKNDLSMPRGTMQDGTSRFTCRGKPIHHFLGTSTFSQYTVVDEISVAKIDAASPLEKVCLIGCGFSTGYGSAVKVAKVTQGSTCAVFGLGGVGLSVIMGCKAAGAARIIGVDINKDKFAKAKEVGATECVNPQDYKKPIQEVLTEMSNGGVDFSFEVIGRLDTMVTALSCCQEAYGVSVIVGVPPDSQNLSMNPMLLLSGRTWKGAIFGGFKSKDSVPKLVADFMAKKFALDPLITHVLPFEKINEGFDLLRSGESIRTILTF

Sequence	absorbance at 450 nm, interaction with ADH [1]	Hydrophobicity [2]	absorbance at 450 nm, interaction with βH crystallin (bovine βH crystallin)	absorbance at 450 nm, interaction with CS [3]	binding of beta amyloid in the protein pin assay (beta amyloid)	absorbance at 450 nm, interaction with γD crystallin (human γD crystallin)
FFGEHLLE [Peptide 14]	Maximum absorbances	0.73				
FISREFHR [Peptide 57]		0.35	Maximum absorbances	absorbance maxima	positive	
FPFHSPSR [Peptide 8]		0.51		absorbance maxima	positive	
FYLRPPSF [Peptide 24]		0.83	Maximum absorbances	absorbance maxima	positive	maximum absorbances
GVLTVNGP [Peptide 71]	Maximum absorbances	0.57	Maximum absorbances		positive	maximum absorbances
LFPTSTSL [Peptide 19]	Maximum absorbances	0.79			positive	
LRAPSWFD [Peptide 28]		0.62		absorbance maxima		
LRPPSFLR [Peptide 25]	Maximum absorbances	0.57				
LTVNGPRK [Peptide 72]		0.16		absorbance maxima	positive	
PFFPFHSP [Peptide 7]	Maximum absorbances	0.95			positive	maximum absorbances
RLEKDRFS [Peptide 35]	Maximum absorbances	−0.12	Maximum absorbances		positive	
RTIPITRE [Peptide 79]	Maximum absorbances	0.27	Maximum absorbances	absorbance maxima	positive	
SFLRAPSW [Peptide 27]		0.71			positive	maximum absorbances
SLSPFYLR [Peptide 22]	Maximum absorbances	0.72		absorbance maxima	positive	maximum absorbances
SREFHRKY [Peptide 58]	Maximum absorbances	−0.1				
